# Legend:
# Assay in all cases: purified protein
# [1] = tested on: CC(=O)Oc1ccc([N+](=O)[O-])cc1; format: biochemical, Hevea brasiliensis; details: BES pH 7.2, 25 °C, about 7 vol% acetonitrile
# CC(C)(O)C#N = format: biochemical, Hevea brasiliensis; details: pH 5 citrate buffer
# N#CC(O)c1ccccc1 = format: biochemical, Hevea brasiliensis; details: pH 5.0 citrate buffer, 25 °C, racemic substrate
# CC(=O)Oc1ccccc1 = details: […] BES pH 7.2, 5% MeCN
# purified protein [2] = substrate: CC(=O)Oc1ccc([N+](=O)[O-])cc1; format: biochemical, Nicotiana tabacum; details: BES pH 7.2, 25 °C, about 7 vol% acetonitrile
# purified protein [3] = substrate: CC(=O)Oc1ccc([N+](=O)[O-])cc1; format: biochemical, Pseudomonas fluorescens; details: BES pH 7.2, 25 °C, about 7 vol% acetonitrile
Molecule,Km [1] [µM],kcat [1] [s⁻¹],kcat/Km [1] [M⁻¹ s⁻¹],also measured
HbHNL (Hevea brasiliensis; E79H/T11G),140 ± 20,0.00967 ± 0.000333,69.3,–
HbHNL (Hevea brasiliensis; K236M),580 ± 50,0.0123 ± 0.000333,21.2,–
HbHNL (Hevea brasiliensis; T11G),200 ± 40,0.0015 ± 8.33e-05,7.5,–
HbHNL (Hevea brasiliensis; K236G/T11G),150 ± 20,0.00217 ± 6.67e-05,14.3,–
HbHNL (Hevea brasiliensis; E79H/K236G/T11G),160 ± 20,0.027 ± 0.000833,168,Km (CC(C)(O)C#N): 6500 ± 1000 µM; kcat (CC(C)(O)C#N): 0.0967 ± 0.00833 s⁻¹; kcat/Km (CC(C)(O)C#N): 14.8 M⁻¹ s⁻¹; Km (N#CC(O)c1ccccc1): 3200 ± 900 µM; kcat (N#CC(O)c1ccccc1): 0.135 ± 0.0167 s⁻¹; kcat/Km (N#CC(O)c1ccccc1): 41.7 M⁻¹ s⁻¹; Km (CC(=O)Oc1ccccc1): 2800 ± 400 µM; kcat (CC(=O)Oc1ccccc1): 0.02 ± 0.00167 s⁻¹; kcat/Km (CC(=O)Oc1ccccc1): 6.83 M⁻¹ s⁻¹
HbHNL (Hevea brasiliensis; E79H),190 ± 40,0.00133 ± 6.67e-05,6.83,–
SABP2 (Nicotiana tabacum) (protein) MKEGKHFVLVHGACHGGWSWYKLKPLLEAAGHKVTALDLAASGTDLRKIEELRTLYDYTLPLMELMESLSADEKVILVGHSLGGMNLGLAMEKYPQKIYAAVFLAAFMPDSVHNSSFVLEQYNERTPAENWLDTQFLPYGSPEEPLTSMFFGPKFLAHKLYQLCSPEDLALASSLVRPSSLFMEDLSKAKYFTDERFGSVKRVYIVCTEDKGIPEEFQRWQIDNIGVTEAIEIKGADHMAMLCEPQKLCASLLEIAHKYN,–,–,–,Km (purified protein [2]): 1400 ± 100 µM
PFE (Pseudomonas fluorescens) (protein) STFVAKDGTQIYFKDWGSGKPVLFSHGWLLDADMWEYQMEYLSSRGYRTIAFDRRGFGRSDQPWTGNDYDTFADDIAQLIEHLDLKEVTLVGFSMGGGDVARYIARHGSARVAGLVLLGAVTPLFGQKPDYPQGVPLDVFARFKTELLKDRAQFISDFNAPFYGINKGQVVSQGVQTQTLQIALLASLKATVDCVTAFAETDFRPDMAKIDVPTLVIHGDGDQIVPFETTGKVAAELIKGAELKVYKDAPHGFAVTHAQQLNEDLLAFLKR,–,–,–,Km (purified protein [3]): 450 µM

# Source: publication PMC4206950 (Chemical science (Royal Society of Chemistry : 2010), 2014)
